Measured values taken from patent US10113152B1, “Variant polypeptides capable of aminating aliphatic alpha keto acids” (AbbVie Inc., priority 2014, dated 2018).

Experiments:
[1] = Reductive amination of 2-oxonon-8-enoic acid to (S)-LCAA by leucine dehydrogenase (NADH consumption at 340 nm, HPLC of aliquots); assay type: biochemical; settings: by four hours; 10 mM 2-oxonon-8-enoic acid, 2 M NH4Cl/OH, pH 9.5, 30° C., GDH/glucose NADH regeneration; FIG. 3
Description: (§1) To produce (S)-LCAA from 2-oxonon-8-enoic acid, a reaction was performed under the following conditions. In 200 mL total volume and a buffered pH of 9.5, the aqueous reaction mixture contained 10 mM 2-oxonon-8-enoic acid, 12 mM glucose, 1 mM NAD^+, 50 mg of purified glucose dehydrogenase (GDH-105; Codexis, Redwood City, Calif.), 2 M NH4Cl/OH, and approximately 60 mL/L of purified leucine dehydrogenase cell-free extract. FIG. 2 depicts the reaction scheme for converting 2-oxonon-8-enoic acid to (S)-LCAA using leucine dehydrogenase. The mixture was incubated at 30° C. and with shaking at 150 rpm for four hours.
Enzyme activity was measured spectrophotometrically by monitoring the consumption of NADH in the reductive amination at 340 nm. Activity was defined as the number of micromoles of NADH consumed in 1 minute (μmol min^−1). Aliquots of the reaction mixture were obtained periodically during the course of the reaction and subjected to analysis by high performance liquid chromatography (HPLC).
To increase the affinity of LDH for the 2-oxonon-8-enoic acid substrate and, thus, enhance the enzyme's activity for producing (S)-LCAA, amino acid substitutions were made within the region of LDH that binds to the substrate. Specifically, amino acid substitutions were introduced at position 42 of B. cereus leucine dehydrogenase (SEQ ID NO:1) using standard mutagenesis techniques. Wild-type B. cereus LDH, along with 19 variants (one for each amino acid substitution at position 42) were expressed and isolated as described in Example 1. The enzymatic activity of the variant proteins was evaluated alongside wild-type B. cereus LDH in the reaction described in Example 1. […] While the disclosure is not bound by any particular theory or mechanism of action, the substitutions that increased the enzymatic activity of the LDH enzyme are believed to have increased the depth of the substrate binding pocket in LDH and thereby increased the affinity of LDH for the 2-oxonon-8-enoic acid substrate.

[2] = HPLC analysis of the percentage of (S)-enantiomer in the LCAA reaction product; assay type: biochemical; settings: LCAA product of the Example 1 reaction, FIG. 4
Description: as §1
To determine what percentage of the LCAA reaction product of the reaction was (S)-LCAA, aliquots of the reaction mixture were analyzed using high performance liquid chromatography (HPLC).

B1: wild-type B. cereus LDH: wild-type B. cereus leucine dehydrogenase, amino acid sequence SEQ ID NO:1 (UniProt P0A392), cell-free extract from E. coli (protein, listed as Bacillus cereus)
chain: MTLEIFEYLEKYDYEQVVFCQDKESGLKAIIAIHDTTLGPALGGTRMWTYDSEEAAIEDALRLAKGMTYKNAAAGLNLGGAKTVIIGDPRKDKSEAMFRALGRYIQGLNGRYITAEDVGTTVDDMDIIHEETDFVTGISPSFGSSGNPSPVTAYGVYRGMKAAAKEAFGTDNLEGKVIAVQGVGNVAYHLCKHLHAEGAKLIVTDINKEAVQRAVEEFGASAVEPNEIYGVECDIYAPCALGATVNDETIPQLKAKVIAGSANNQLKEDRHGDIIHEMGIVYAPDYVINAGGVINVADELYGYNRERALKRVESIYDTIAKVIEISKRDGIATYVAADRLAEERIASLKNSRSTYLRNGHDIISRR
[1]
  conversion of the substrate to LCAA: greater than 99.5%
[2]
  percentage of the reaction product that was the (S)-enantiomer: greater than 99.5%
